Data: US20260210971A1 (Pfizer, published 2026)

What was measured:
[1] = biological target: T1, recombinant soluble human TL1A (human, UniProt O95150 71-251); assay: plate ELISA, TL1A coated, antibody titrated; plate of Lymβ 1
T1 construct: Homotrimer, expressed in HEK293 and purified over HitrapNTA; no tag is described; Used biotinylated in the HTRF assay and in flow cytometry; also called rsTL1A; hTL1A
T1 sequence: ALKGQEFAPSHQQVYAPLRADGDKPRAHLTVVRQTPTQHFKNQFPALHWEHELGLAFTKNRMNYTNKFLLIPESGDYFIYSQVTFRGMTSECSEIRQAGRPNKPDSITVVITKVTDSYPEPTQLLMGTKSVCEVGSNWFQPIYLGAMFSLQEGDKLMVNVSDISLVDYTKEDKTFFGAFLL
Description: The first 6 rows of each plate were coated with the test article cytokine, and the last two rows were coated with TL1A as a positive control. Rows 1 and 2 were duplicate rows where the test article cytokine was tested for binding to increasing concentrations of its corresponding anti-cytokine positive control antibody. […] The experiment for each cytokine was repeated three times.
Plates were incubated overnight at 4° C. After washing the plates three times (3×) with 300 μL PBST using a plate washer (model ELx405; BioTek), plates were blocked by incubating for 1 hour at room temperature with 300 μL of blocking buffer (PBST+0.5% BSA) in each well. […] Plates were then washed 5 times with PBST using the plate washer.

[2] = biological target: T2, endogenous TL1A of stimulated cynomolgus monkey peripheral blood (cynomolgus monkey, UniProt G7PRK8 72-251); assay: MSD ligand-binding assay of 1D1 1.31-free sTL1A in plasma of stimulated cynomolgus blood; upper end over the monkeys; upper end of range over 6 monkeys
T2 construct: also called sTL1A (cynomolgus)
T2 sequence: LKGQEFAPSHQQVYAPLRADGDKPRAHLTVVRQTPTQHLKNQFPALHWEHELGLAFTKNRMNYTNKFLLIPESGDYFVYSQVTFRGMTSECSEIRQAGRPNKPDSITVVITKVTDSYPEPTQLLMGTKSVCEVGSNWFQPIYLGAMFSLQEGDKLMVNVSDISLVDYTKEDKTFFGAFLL
Description: Cynomolgus monkey peripheral blood treated with 1 ng/ml recombinant human IL-12 and 10 ng/ml recombinant human IL-18 was stimulated by immune complex coated plates for 24 hours at 37° C. […] Plasma was prepared from these samples and IFNγ was measured in the plasma samples by a quantitative immune-ligand binding assay using a Mesoscale (MSD) kit. […] Cynomolgus monkey peripheral blood treated with 1 ng/ml recombinant human IL-12 and 10 ng/ml recombinant human IL-18 was stimulated by immune complex coated plates for 24 hours at 37° C.
For IC and IL-12 and IL-18 stimulation, cynomolgus monkey blood was collected in sodium heparin coated tubes and used within one hour after the blood draw. Human IL-12 (1 ng/mL final concentration) and human IL-18 (10 ng/ml final concentration) were mixed in with blood prior to addition of 95 μL of the blood/IL-12/IL-18 mixture to each well of the IC coated plates.

B1: 1D1 1.31 (antibody, human IgG1, kappa, V domains shown)
VH: QVQLVQSGAEVKKPGASVKVSCKASGYDFTYYGISWVRQAPGQGLEWMGWISTYNGNTHYARMLQGRVTMTTDTSTRTAYMELRSLRSDDTAVYYCARENYYGSGAYRGGMDVWGQGTTVTVSS
VL: EIVLTQSPATLSLSPGERATLSCRASQSVSSYLAWYQQKPGQAPRLLIYDASNRATGIPARFSGSGSGTDFTLTISSLEPEDFAVYYCQQRSNWPWTFGQGTKVEIKR
notes: Full length human IgG1 with effector function-null mutations in the Fc, produced in CHO cells; Used biotinylated for staining of monocytes
EC50 [1]: 0.0063 ng/mL
IC50 [2]: 90 pM
